Key:
[1] = tested on: Human squamous cell carcinoma (O12); assay: Inhibition of tumor growth by rhLF in O12 tumor model in mice; type: in vivo, athymic nude mice
Method: Human squamous cell carcinoma (O12) was used. The cells were injected into the right flank of athymic nude mice. rhLF was administered either intratumorally (49 animals, 7 doses ranging from 0.05 μg to 125 μg per dose), intravenously (7 animals, 125 μg/dose) or orally (7 animals 20 mg/dose). Control animals were treated with only the vehicle; no rhLF was administered to the control animals. rhLF was administered twice a day for either five days (intravenous group) or eight days (all other groups) starting 11 days after inoculation with tumor cells to allow formation of established tumors.
The efficacy of treatment was evaluated by measuring the solid tumor size during and at the end of the experiment; the body weights were also determined at the time of tumor measurements.

IL-18 = IL-18 levels in small intestine and serum after oral rhLF or bLF (ELISA); type: in vivo, mice; settings: for IL-18 level, Intestinal Extract / IL-18 level, Serum: 24 h after last dose
Method: Recombinant human lactoferrin and bovine lactoferrin were orally administered to mice, and the production of IL-18 in the small intestine was measured.
Mice were treated for three days daily with 65 mg/kg/day of rhLF, 300 mg/kg/day of rhLF or 300 mg/kg/day of bLF. For a control, mice were only administered the pharmaceutical carrier. Twenty-four hours following administration of the LF or control for 3 days, animals were weighed and blood and serum were collected. Serum was used for cytokine ELISA assays.
Also, at these time points, animals were sacrificed and the small intestinal tissue was removed for further analysis. Small intestinal epithelium was homogenized using a lysis buffer consisting of PBS, 1% Nonidet P-40, 0.5% sodium deoxycholate, and 0.1% sodium dodecyl sulphate containing 10 μg/ml PhenylMetheylsulfonyl fluoride. Homogenate was centrifuged at 15,000 rpm for 10 minutes and the supernatant stored at −80 C till it was tested for IL-18 levels.

GM-CSF = GM-CSF production in small intestine after oral rhLF (ELISA); type: in vivo, mice; settings: oral 300 mg/kg/day for three days
Method: Recombinant human lactoferrin or placebo were orally administered to mice, and the production of GM-CSF in the small intestine was measured.
Mice (5 animals per group) were treated for three days daily with 300 mg/kg/day of rhLF. For a control, mice were only administered the pharmaceutical carrier. Twenty-four hours following administration of the LF or placebo for 3 days, animals were and the small intestinal tissue was removed for further analysis. Small intestinal epithelium was homogenized using a lysis buffer consisting of PBS, 1% Nonidet P-40, 0.5% sodium deoxycholate, and 0.1% sodium dodecyl sulphate containing 10 μg/ml PhenylMetheylsulfonyl fluoride. Homogenate was centrifuged at 15,000 rpm for 10 minutes and the supernatant stored at −80 C till it was tested for GM-CSF levels using an ELISA kit.

[2] = tested on: murine squamous carcinoma cell line (SCCVII); assay: SCCVII floor-of-mouth tumor growth, oral rhLF and/or cisplatin; type: in vivo, C3H mice; settings: rhLF 200 mg/Kg oral once daily days 5-12, no cisplatin
Method: A murine squamous carcinoma cell line (SCCVII) was injected into the floor of the mouth through the neck skin of immunocompetent C3H mice (Day 0). […] Tumors were measured in three dimensions with calipers.
Tumor-bearing mice were randomized into a control group and seven groups receiving rhLF and/or cisplatin. RhLF (4 mg; 200 mg/Kg) was administered once daily by oral gavage for 8 days on days 5 through 12. Cisplatin was administered as a single dose of 5 mg/Kg given intraperitoneally either at the start of rhLF (day 5), in the middle (day 8) or at the end (day 12) of rhLF therapy. Animals were sacrificed on day 12 post-implantation and the residual tumor masses were measured and processed for later additional analyses.
A murine squamous carcinoma cell line (SCCVII) was injected into the floor of the mouth through the neck skin of immunocompetent C3H mice (Day 0) as described in Example 6. On Day 5 days after initial implantation, tumors were measured for the baseline, then treated with either cisplatin (Day 8, i.p., 5 mg/kg) alone or cisplatin plus three doses of oral rhLF (daily by gavage for 7-8 days on days 5 through 11/12). Animals were sacrificed on Day 11/12 and tumors measured.

metastatic cancer = assay: Oral rhLF in human patients with metastatic cancer, tumor size by CT; type: in vivo
Method: Recombinant human lactoferrin was orally administered to human patients with a range of metastatic cancer types that had failed standard chemotherapy in two different studies conducted in multiple centers in four countries (Argentina, Brazil, Chile, U.S.) RhLF was administered at doses of 1.5 to 9 grams daily in two divided doses in cycles of 14 each with a 14 day gap.
Tumor size progression was monitored through CT scans and tumor markers where available. CT scans were performed at baseline and after each 8-week period once treatment was initiated, and also compared with a pre-baseline scan conducted prior to enrollment in the study. Tumor markers are measured every 4 weeks. Blood samples were collected to measure subclasses of circulating lymphocytes and NK cell activity. Plasma, serum and blood cell extract samples were collected to measure circulating IL-18, IL-1, IL-2, and IL-4, IL-5, IL-10, IL-12 and IFN-γ.

[3] = tested on: O12 human oropharyngeal squamous cell carcinoma tumor cells; assay: Intratumoral rhLF in O12 tumors in nude mice; type: in vivo, athymic nude mice
Method: O12 human oropharyngeal squamous cell carcinoma tumor cells were injected to the right flank of athymic nude mice. Recombinant human lactoferrin and vehicle controls were dosed via intratumoral injection. Each animal was administered different concentrations of rhLF in 50 μL doses consisting of four separate injections of approximately 12.5 μL of the dose, at different directions and angles (approximately S/N/E/W) to ensure that the dose was distributed evenly throughout the tumor (fanning).
In this study, rhLF was administered directly into the tumor. Each animal was tracked daily for tumor growth by external caliper measurements of the protruding tumor.

[4] = oral 65 mg/kg/day for three days
[5] = oral 65 mg/kg/day rhLF versus 300 mg/kg bLF
[6] = oral 300 mg/kg/day for three days
[7] = oral 300 mg/kg/day rhLF versus 300 mg/kg bLF

B1: rhLF: recombinant human lactoferrin, a single chain metal binding glycoprotein (protein, UniProt P02788 20-710, looked up)
Lactotransferrin: GRRRSVQWCAVSQPEATKCFQWQRNMRKVRGPPVSCIKRDSPIQCIQAIAENRADAVTLDGGFIYEAGLAPYKLRPVAAEVYGTERQPRTHYYAVAVVKKGGSFQLNELQGLKSCHTGLRRTAGWNVPIGTLRPFLNWTGPPEPIEAAVARFFSASCVPGADKGQFPNLCRLCAGTGENKCAFSSQEPYFSYSGAFKCLRDGAGDVAFIRESTVFEDLSDEAERDEYELLCPDNTRKPVDKFKDCHLARVPSHAVVARSVNGKEDAIWNLLRQAQEKFGKDKSPKFQLFGSPSGQKDLLFKDSAIGFSRVPPRIDSGLYLGSGYFTAIQNLRKSEEEVAARRARVVWCAVGEQELRKCNQWSGLSEGSVTCSSASTTEDCIALVLKGEADAMSLDGGYVYTAGKCGLVPVLAENYKSQQSSDPDPNCVDRPVEGYLAVAVVRRSDTSLTWNSVKGKKSCHTAVDRTAGWNIPMGLLFNQTGSCKFDEYFSQSCAPGSDPRSNLCALCIGDEQGENKCVPNSNERYYGYTGAFRCLAENAGDVAFVKDVTVLQNTDGNNNEAWAKDLKLADFALLCLDGKRKPVTEARSCHLAMAPNHAVVSRMDKVERLKQVLLHQQAKFGRNGSDCPDKFCLFQSETKNLLFNDNTECLARLHGKTTYEKYLGPQYVAGITNLKKCSTSPLLEACEFLRK
[1]; Intratumoral, 0.05 μg to 125 μg per dose twice a day for eight days, N = 49, Day 19
  Inhibition Relative to Placebo (tumor growth): 28%
[1]; Intratumoral, 0.05 μg to 125 μg per dose twice a day for eight days, N = 49, Day 28
  Inhibition Relative to Placebo (tumor growth): 46%
[1]; Intravenous, 125 μg/dose twice a day for five days, N = 7, Day 19
  Inhibition Relative to Placebo (tumor growth): 55%
[1]; Intravenous, 125 μg/dose twice a day for five days, N = 7, Day 28
  Inhibition Relative to Placebo (tumor growth): 65%
[1]; Oral, 20 mg/dose twice a day for eight days, N = 7, Day 19
  Inhibition Relative to Placebo (tumor growth): 76%
[1]; Oral, 20 mg/dose twice a day for eight days, N = 7, Day 28
  Inhibition Relative to Placebo (tumor growth): 80%
[1]; across intratumoral, intravenous and oral routes
  reduced rates of tumor growth relative to the control: 46% to 80
IL-18; [4]
  IL-18 Intestinal Extract % Increase Over Control: 725%
  IL-18 Serum % Increase Over Control: 84%
  IL-18 level, Intestinal Extract: 7,879 pg
  IL-18 level, Serum: 259 pg
IL-18; [5]
  IL-18 Intestinal Extract % Increase Over Blf: 75%
  IL-18 Serum % Increase Over Blf: 94%
IL-18; [6]
  IL-18 Intestinal Extract % Increase Over Control: 775%
  IL-18 Serum % Increase Over Control: 132%
  IL-18 level, Intestinal Extract: 8,350 pg
  IL-18 level, Serum: 328 pg
IL-18; [7]
  IL-18 Intestinal Extract % Increase Over Blf: 85%
  IL-18 Serum % Increase Over Blf: 145%
IL-18; oral, both doses (65 and 300 mg/kg/day)
  amounts of IL-18 in both the serum and in the intestinal extract: significantly enhanced
GM-CSF
  GM-CSF Increase over Placebo: 19.4% (p < 0.01)
GM-CSF; 5 animals per group
  GM-CSF level, Mean (SEM): 7.74 (0.19) pg
[2]
  TGI (%) Relative to Placebo: 33%
Metastatic cancer; Patient # 007, Lung, 7.5 weeks, pretreatment 160% (5.5 weeks)
  Post Treatment 1 % Growth of tumor: 13%
Metastatic cancer; Patient # 007, Lung, 8.5 weeks, pretreatment 160% (5.5 weeks)
  Post Treatment 2 % Growth of tumor: 12%
Metastatic cancer; Patient # 102, Ovarian, 8.5 weeks, pretreatment 30% (21 weeks)
  Post Treatment 2 % Growth of tumor: −7%
Metastatic cancer; Patient # 102, Ovarian, 10.5 weeks, pretreatment 30% (21 weeks)
  Post Treatment 1 % Growth of tumor: −5%
Metastatic cancer; Patient # 104, Gastric, 7 weeks, pretreatment 25% (5.5 weeks)
  Post Treatment 2 % Growth of tumor: −5%
Metastatic cancer; Patient # 104, Gastric, 10 weeks, pretreatment 25% (5.5 weeks)
  Post Treatment 1 % Growth of tumor: 10%
Metastatic cancer; Patient # 106, Melanoma, 11 weeks, pretreatment 24% (19 weeks)
  Post Treatment 1 % Growth of tumor: −18%
Metastatic cancer; Patient # 204, Breast, 6.5 weeks, pretreatment 40% (8 weeks)
  Post Treatment 2 % Growth of tumor: 0%
Metastatic cancer; Patient # 204, Breast, 10 weeks, pretreatment 40% (8 weeks)
  Post Treatment 1 % Growth of tumor: 0%
Metastatic cancer; oral 1.5 to 9 grams daily, nine of nineteen evaluable patients, first post-treatment scan
  patients with stable disease by the RECIST criteria: 47%
[3]; Group A, single intratumoral dose (100-500 μg), day 11 after the administration
  reduction of rates of tumor growth versus pooled placebo: 50%
[3]; Group C, intratumoral twice daily for 8 days (25-500 μg per dose)
  reduction of rates of tumor growth versus pooled control group: 56%

— US20100137208A1, “INTRATUMORALLY ADMINISTERED LACTOFERRIN IN THE TREATMENT OF MALIGNANTNEOPLASMS AND OTHER HYPERPROLIFERATIVE DISEASES” (priority 2002, published 2010)
